Among the data in publication PMC6135763 (Nature Communications, 2018) are Kd values, retold here.

Assay [1] has as its target T1, Importin α3ΔIBB (residues 64–521) (human, UniProt O00629 64-521).
T1 construct: also called Impα3; KPNA4
T1 sequence (looked up): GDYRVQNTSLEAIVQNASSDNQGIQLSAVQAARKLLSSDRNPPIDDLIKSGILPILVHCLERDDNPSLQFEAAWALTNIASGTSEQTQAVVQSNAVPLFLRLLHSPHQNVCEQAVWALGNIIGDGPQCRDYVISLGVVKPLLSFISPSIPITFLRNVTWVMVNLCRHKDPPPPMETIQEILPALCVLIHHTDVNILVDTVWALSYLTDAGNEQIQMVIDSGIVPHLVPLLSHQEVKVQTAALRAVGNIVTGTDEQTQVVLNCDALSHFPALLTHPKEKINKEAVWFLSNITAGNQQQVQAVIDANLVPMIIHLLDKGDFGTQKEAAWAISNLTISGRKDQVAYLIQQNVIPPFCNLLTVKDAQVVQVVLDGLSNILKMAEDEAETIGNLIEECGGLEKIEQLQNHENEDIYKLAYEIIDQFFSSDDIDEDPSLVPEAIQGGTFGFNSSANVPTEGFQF
Kind of assay: ELISA. The following applies: both partners purified. In general terms: An ELISA detects its analyte on a solid surface through an enzyme-linked reagent.

For assay [2], the target named is Importin α7ΔIBB (residues 73–536) (human, UniProt O60684 73-536). As to the kind of experiment: ELISA. As to conditions: both partners purified.
Importin α7ΔIBB (residues 73–536), sequence (O60684 73-536, stated change not applied): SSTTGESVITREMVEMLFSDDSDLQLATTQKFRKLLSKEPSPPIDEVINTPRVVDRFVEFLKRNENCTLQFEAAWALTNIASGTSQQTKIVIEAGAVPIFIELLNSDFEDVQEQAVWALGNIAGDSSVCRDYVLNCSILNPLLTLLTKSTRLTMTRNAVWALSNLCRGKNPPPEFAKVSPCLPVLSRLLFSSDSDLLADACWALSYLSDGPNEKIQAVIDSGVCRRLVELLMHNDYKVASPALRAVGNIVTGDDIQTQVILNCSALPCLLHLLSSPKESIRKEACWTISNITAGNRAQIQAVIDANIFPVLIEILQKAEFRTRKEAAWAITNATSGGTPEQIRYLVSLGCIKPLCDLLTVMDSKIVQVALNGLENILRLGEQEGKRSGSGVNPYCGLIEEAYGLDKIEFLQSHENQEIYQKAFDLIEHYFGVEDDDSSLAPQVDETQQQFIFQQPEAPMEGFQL

What is called Kd is the free concentration of one partner at which half of the binding sites on the other are occupied at equilibrium, for simple one-to-one binding. Low values mean higher affinity, high ones lower affinity. On to RSLNMLGRKTCLGRRVVQPGMFADYPPTKKARVLLRRMSN (domain or fragment) [GST-HeV W (C-terminal NLS domain of Hendra virus W protein, residues 409–448, GST fusion)], for which the Kd turned out to be 19.9 nM in assay [1] and 1500 nM in assay [2].
The matching figures for RNIHLLGRKTCLGRRVVQPGMFEDHPPTKKARVSMRRMSN (domain or fragment) [GST-NiV W (C-terminal NLS domain of Nipah virus W protein, residues 411–450, GST fusion)]: 14.4 nM and 1100 nM.
